Results as given in patent EP1506971A1 (The Regents of the University of California, dated 2005).

Target: prokineticin receptor(s) of guinea pig ileal membrane / ileal smooth muscle (guinea pig)
Experiment: cell-based or functional assay

B1: chimeric prokineticin 21 (exons 1 and 2 of prokineticin 2, exon 3 of prokineticin 1) (ligand)
chain: AVITGACDKDSQCGGGMCCAVSIWVKSIRICTPMGKLGDSCHPLTRKVPFFRKRKHHTCPCLPNLLCSRFPDGRYRCSMDLKNINF
- EC50 of ileal smooth muscle contraction, relative to prokineticin 1 or prokineticin 2: ~8 fold
